Biological target: T1, mouse PV-1 protein (mouse, UniProt Q91VC4 1-438, limits assumed)
T1 construct: The form tested is not described
T1 sequence: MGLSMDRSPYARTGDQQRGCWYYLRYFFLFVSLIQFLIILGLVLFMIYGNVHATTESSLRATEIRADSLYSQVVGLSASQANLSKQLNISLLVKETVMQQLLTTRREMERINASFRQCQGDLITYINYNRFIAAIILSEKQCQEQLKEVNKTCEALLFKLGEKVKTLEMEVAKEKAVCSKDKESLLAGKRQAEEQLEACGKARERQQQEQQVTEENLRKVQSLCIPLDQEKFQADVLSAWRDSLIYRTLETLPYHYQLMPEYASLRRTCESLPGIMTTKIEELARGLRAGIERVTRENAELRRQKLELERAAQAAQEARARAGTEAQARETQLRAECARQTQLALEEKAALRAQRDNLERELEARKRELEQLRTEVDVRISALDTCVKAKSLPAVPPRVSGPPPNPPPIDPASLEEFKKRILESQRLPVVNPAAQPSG
Assay: not described

B1: murine monoclonal antibody STW-139-15 (antibody, V domains shown)
VH: QVQLQQSGAELVKPGASVKLSCKASGYTFTDYYMYWVKQRPGQGLELIGEINPTNGDVNFNEMFKSKATLTVDTSSRTAYMQLSSLTSEDSAVYYCTSIHYWGQGTLVTVSA
VL: DIVMTQSPSSMYASLGERITITCKASQDIKTNLSWYQQKPWKSPKTLIYYATDLADGVPSRFSGSGSGQYFSLTISSLESDDTATYYCLQHDDRPFTFGSGTKLEIK
Question: Does B1 bind?
Answer: no binding
